Test results from patent US20230322924A1 (Janssen / Centocor, published 2023).

Tests used:
Cyno CD33 ECD-HSA [1] = target: T1, Cyno CD33 ECD-HSA (cynomolgus monkey); test: ProteOn SPR, mAb captured on anti-human Fc, antigen as analyte
T1 construct: Cyno CD33 ECD fused to HSA and a six-histidine tag; also called C33W1
Method: (§1) The panel of mAbs was then further characterized for full affinity analysis as well as epitope binning. The binding of anti-CD33 mAbs to recombinant human CD33 ECD-HSA (C33W2) and cyno CD33 ECD-HSA (C33W1) was measured by ProteOn SPR (Bio-Rad). […] Different mAbs were captured on the anti-human Fc IgG surface at 0.25 or 0.5 μg/ml (160-300 RU) in vertical ligand orientation, with the 6th ligand channel as no ligand surface control. Human and cyno CD33-HSA proteins at 0.3 μM concentration in 3-fold dilution series of 5 concentrations flew in as analyte to bind to captured mAbs in the horizontal orientation. A buffer sample was also injected in the 6th channel to monitor the dissociation of captured mAb and baseline stability. […] The raw biding data were processed by double referencing after subtracting the response data from: 1) the inter-spot to correct for the non-specific interactions between the Ag and the empty chip surface; 2) the buffer channel to correct for baseline drifting due to the dissociation of captured mAb surface over time. The processed data at all antigen concentrations for each mAb were globally fit to a 1:1 simple Langmuir binding model to extract estimates of the kinetic (kₒₙ, koff) and affinity (Kd) constants.

Human CD33 ECD-HSA [2] = target: T2, Human CD33 ECD-HSA (human); test: as above
T2 construct: CD33 ECD fused at the C-terminus to monomeric HSA (C58S) and a six-histidine tag; also called C33W2; huCD33 ECD-HSA
Method: as §1

Human CD33 full length = target: T3, Human CD33 full length (human, UniProt P20138 18-364); test: flow cytometry on HEK293F cells expressing human CD33
T3 construct: also called huCD33
T3 sequence (P20138 18-364 limits assumed): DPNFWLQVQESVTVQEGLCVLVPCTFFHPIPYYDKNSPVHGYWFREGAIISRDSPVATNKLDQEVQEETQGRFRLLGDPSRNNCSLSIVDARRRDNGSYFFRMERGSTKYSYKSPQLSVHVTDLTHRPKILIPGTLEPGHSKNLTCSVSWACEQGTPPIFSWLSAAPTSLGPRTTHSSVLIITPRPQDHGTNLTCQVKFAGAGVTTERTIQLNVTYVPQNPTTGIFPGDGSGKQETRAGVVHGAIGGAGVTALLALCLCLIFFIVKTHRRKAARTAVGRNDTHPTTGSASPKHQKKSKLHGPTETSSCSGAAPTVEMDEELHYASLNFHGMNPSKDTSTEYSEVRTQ
Method: (§2) The purified antibodies were assessed for binding to stably transfected HEK293F cells expressing human CD33 or cyno CD33 (generation described above) along with the parental HEK293F as negative control. Cells were harvested from tissue culture flasks using non-enzymatic dissociation buffer (Thermo Scientific). The flasks were rinsed twice with PBS and dissociation buffer was added to the flask, and the flask was incubated for 10 minutes at 37° C. until the cells became non-adherent. The cells were centrifuged at 300 g for 5 minutes and resuspended at 1.0×10⁶ cells/ml in staining buffer (Becton Dickinson; Franklin Lakes, NJ). 50,000 cells/well of each cell type was plated in 50 μl of staining buffer in round bottom plates (Becton Dickinson). […] 100 μl staining buffer was added to all wells of each plate, the plates were spun at 300 g for 5 min, the buffer was removed, 200 μl staining buffer was added to all wells of each plate, the plates were spun at 300 g for 5 min, and the buffer was removed. 50 μl of 2 μg/ml of Goat-anti-human Fc AF647 secondary antibody (Jackson Immunoresearch; West Grove, PA) was added to all wells of the plates, and the plates were incubated for 30 min at 4° C. 100 μl staining buffer was added to all wells of the plates, the plates were spun at 300 g for 5 min, and the buffer was removed. 200 μl running buffer (running buffer is Staining buffer, 1 mM EDTA, 0.1% Pluronic Acid) was added to all wells of the plates, the plates were spun at 300 g for 5 min, and the buffer was removed. 30 μl running buffer containing Sytox Green live/dead dye (ThermoFisher) was added to all wells with cells and the plates were read on an iQue IntelliCyt flow cytometer. Cells were gated on forward vs. side scatter to eliminate debris, then on singlets and then on live cells which excluded the Sytox stain. Antibody binding was assessed by the mean fluorescence intensity in the AF647 channel.
(§3) The OmniMouse panel (8 mAbs total) was generated separately and characterized further for binding to cells.

Cyno CD33 full length = target: T4, Cyno CD33 full length (cynomolgus monkey); test: flow cytometry on HEK293F cells expressing cyno CD33
T4 construct: also called cyCD33
Method: as §2, §3

Cyno CD33 ECD-HSA [3] = target: T5, Cyno CD33 ECD-HSA (cynomolgus monkey); test: ProteOn SPR, mAb captured by anti-human Fc, 1:1 Langmuir fit
T5 construct: Cyno CD33 extracellular domain fused to monomeric human serum albumin and a six-histidine tag; also called C33W1

Human CD33 ECD-HSA [4] = target: Human CD33 ECD-HSA (human); test: as above
Human CD33 ECD-HSA [5] = target: Human CD33 ECD-HSA (human); test: SPRi off-rate screen (IBIS MX96), mAb captured by anti-human Fc; column head prints KD
[6] = target: T6, Cyno CD33 full length, expressed on HEK293F cells (cynomolgus monkey); test: flow cytometry, HEK293F cells expressing cyno CD33
T6 construct: HEK293F cells transduced with lentivirus containing full length cyno CD33 (Genbank XP_005590138.1); also called cyCD33

Cyno CD33 ECD-HSA [7] = target: T5, Cyno CD33 ECD-HSA; test: SPRi off-rate screen (IBIS MX96), mAb captured by anti-human Fc; column head prints Cyno CD33 binding KD
[8] = target: T7, Human CD33 full length, expressed on HEK293F cells (human, UniProt P20138 18-364); test: flow cytometry, HEK293F cells expressing human CD33
T7 construct: HEK293F cells transduced with lentivirus containing full length human CD33; also called huCD33
T7 sequence (P20138 18-364 limits assumed): as above

Row | Kd (Cyno CD33 ECD-HSA [3]) | koff (Cyno CD33 ECD-HSA [3]) | kon (Cyno CD33 ECD-HSA [3]) | Kd (Human CD33 ECD-HSA [4]) | koff (Human CD33 ECD-HSA [4]) | kon (Human CD33 ECD-HSA [4]) | koff (Human CD33 ECD-HSA [5]) | MFI at 0 nM mAb (background) [6] | MFI at 0.6 nM mAb [6] | MFI at 6 nM mAb [6] | MFI at 60 nM mAb [6] | koff (Cyno CD33 ECD-HSA [7]) | MFI at 0 nM mAb (background) [8] | MFI at 0.6 nM mAb [8] | MFI at 6 nM mAb [8] | MFI at 60 nM mAb [8] | Binder | further results
1 |  |  |  |  |  |  |  |  |  |  |  |  |  |  |  |  | C33B911 (antibody, V domains shown, OMNIMouse-derived anti-CD33 mAb; same V regions as C33B903; also called C33H251/C33L117; C33F549) VH: EVQLVESGGGLVQPGRSLRLSCAASGFTFDDYAMHWVRQAPGKGLEWVSGIGWSGGSIVYADSVKGRFKISRDNAKNSLYLQMNSLRAEDTALYYCAKDSPYGDFFDYWGQGTLVTVSS VL: not shown | Kd (Cyno CD33 ECD-HSA [1]): 1 nM; koff (Cyno CD33 ECD-HSA [1]): 0.00115 s⁻¹; kon (Cyno CD33 ECD-HSA [1]): 1.15e+06 M⁻¹ s⁻¹; Kd (Human CD33 ECD-HSA [2]): 0.0378 nM; koff (Human CD33 ECD-HSA [2]): 4.14e-05 s⁻¹; kon (Human CD33 ECD-HSA [2]): 1.1e+06 M⁻¹ s⁻¹; MFI at 0 nM (background) (Human CD33 full length): 114 MFI; MFI at 0.6 nM (Human CD33 full length): 13500 MFI; MFI at 6 nM (Human CD33 full length): 100000 MFI; MFI at 60 nM (Human CD33 full length): 238000 MFI; MFI at 0 nM (background) (Cyno CD33 full length): 97.9 MFI; MFI at 0.6 nM (Cyno CD33 full length): 1940 MFI; MFI at 6 nM (Cyno CD33 full length): 7730 MFI; MFI at 60 nM (Cyno CD33 full length): 17000 MFI
2 | 4.74 nM | 0.00148 s⁻¹ | 313000 M⁻¹ s⁻¹ | 19.2 nM | 0.00396 s⁻¹ | 206000 M⁻¹ s⁻¹ | 0.00313 s⁻¹ | 75.2 MFI | 2060 MFI | 8440 MFI | 12600 MFI | 0.0012 s⁻¹ | 82.5 MFI | 6750 MFI | 46300 MFI | 197000 MFI | C33B52 (antibody, IgG1, V domains shown, huIgG1 F405L; also called C33F57; C33H42/C33L8) VH: QLQLQESGPGLVNPSETLSHTCTVSGGSISSSSHYWGWIRQPPGKGLEWIGKIYYSGNTYYNPSLKSRVTISIDTSKNQFSLKMSSVTAADTAVYYCARLADVVVVPAARYFDSWGQGTLVTVSS VL: SYELTQPPSVSVSPGQTASIICSGDKLGNKYACWYQQKPGQSPVLVIYQDSKRPSGIPERFSGSNSGNTATLTISGTQAVDEADYYCQAWDSSTYVFGTGTKVTVL | 
3 | 0.527 nM | 0.000259 s⁻¹ | 492000 M⁻¹ s⁻¹ | 1.32 nM | 0.000425 s⁻¹ | 323000 M⁻¹ s⁻¹ | 0.000384 s⁻¹ | 82.4 MFI | 109 MFI | 249 MFI | 4610 MFI | 0.000266 s⁻¹ | 88.9 MFI | 115 MFI | 410 MFI | 5800 MFI | C33B80 (antibody, IgG1, V domains shown, huIgG1 F405L; also called C33F85; C33H76/C33L39) VH: EVQLLESGGGLVQPGGSLRLSCAASGFTFNYAMSWVRQAPGKGLEWVSAISGSGGSTYYADSVKGRFTISRDISKNTLYLQMNSLRAEDTAVYYCARTYNSGYYDGDFDYWGQGTLVTVSS VL: QSALTQPASVSGSPGQSIPISSTGTSSDDGKNNIVSWYQQHPGKAPKLMIYKDSKRPSGVSNRFSGSKSGNTASLTISGLQADDEADYHCCSYAGASNHVVFGGGTKLTVL | 
4 | 0.304 nM | 0.000339 s⁻¹ | 1.12e+06 M⁻¹ s⁻¹ | 0.14 nM | 0.000134 s⁻¹ | 992000 M⁻¹ s⁻¹ | 0.000154 s⁻¹ | 70.2 MFI | 3460 MFI | 11500 MFI | 15600 MFI | 0.000351 s⁻¹ | 78.3 MFI | 9200 MFI | 79700 MFI | 259000 MFI | C33B125 (antibody, IgG1, V domains shown, huIgG1 F405L; also called C33F130; C33H84/C33L66) VH: QVQLVESGGGVVQPGRSLRLSCAASGFTFSSYGMHWVRQAPGKGLEWVAVISYDGSNKYYADSVKGRFTISRDNSKNTLYLQMNSLRAEDTAVYYCAKDFRSFDWLPPDSTSYYGMDVWGQGTTVTVSS VL: SYELTQPPSVSVSPGQTASITCSGDKLGDKYVCWYQQKPGQSPVVVIHQDRKRPSGIPERFSGSNFGNTATLTISGTQAMDEADYYCQAWDSSTVVFGGGTKLTVL | 
